Laboratory results as given in publication PMC9714913.

Molecular target: AMC009 SOSIP gp120-gp41 protomer (HIV-1 (clade B, donor H18877))
Experiment: cryo-EM structure; AMC009 SOSIPv5.2 trimer with 10-fold molar excess of ACS114 Fab for 12 hours at RT, then 6-fold molar excess of ACS122 Fab for 15 minutes; complex purified by SEC in TBS; ~4.0 Å

In the case of “AMC009 SOSIP gp120-gp41 protomer (complex)”, the stoichiometry N is reported as 3.
